Results reported in publication PMC9897197 (Brain, 2022).

Key:
[1] = Brain uptake; conditions: ISCP, 13.5-month-old female non-Tg vs 3xTg-AD mice; unpaired t-test
[2] = target: INSRβ (Mus musculus, UniProt P15208); test: Phosphorylation of INSRβ; type: in vivo; conditions: 6-month-old C57Bl6 mice
Sequence of INSRβ (P15208 28-746 limits assumed): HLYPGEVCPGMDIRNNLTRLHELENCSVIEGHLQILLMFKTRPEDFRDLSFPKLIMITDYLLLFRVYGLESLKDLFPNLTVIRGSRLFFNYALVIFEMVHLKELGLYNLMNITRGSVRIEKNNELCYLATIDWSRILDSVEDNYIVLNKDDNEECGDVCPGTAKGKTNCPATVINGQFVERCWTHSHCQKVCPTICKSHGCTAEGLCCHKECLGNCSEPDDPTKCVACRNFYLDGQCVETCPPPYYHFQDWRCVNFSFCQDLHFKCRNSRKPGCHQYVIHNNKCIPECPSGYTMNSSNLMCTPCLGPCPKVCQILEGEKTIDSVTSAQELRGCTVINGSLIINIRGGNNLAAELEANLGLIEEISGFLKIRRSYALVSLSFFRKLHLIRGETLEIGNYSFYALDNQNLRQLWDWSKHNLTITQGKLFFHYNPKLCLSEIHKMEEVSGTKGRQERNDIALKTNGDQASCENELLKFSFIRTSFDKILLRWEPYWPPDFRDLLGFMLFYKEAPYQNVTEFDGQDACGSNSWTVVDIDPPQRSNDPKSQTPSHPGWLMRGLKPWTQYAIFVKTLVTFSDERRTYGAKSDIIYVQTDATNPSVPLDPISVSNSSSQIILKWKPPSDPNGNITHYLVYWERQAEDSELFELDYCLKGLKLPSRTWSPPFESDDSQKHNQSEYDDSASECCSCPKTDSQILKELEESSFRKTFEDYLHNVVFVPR
Sequence of INSRβ (P15208 753-1372 limits assumed): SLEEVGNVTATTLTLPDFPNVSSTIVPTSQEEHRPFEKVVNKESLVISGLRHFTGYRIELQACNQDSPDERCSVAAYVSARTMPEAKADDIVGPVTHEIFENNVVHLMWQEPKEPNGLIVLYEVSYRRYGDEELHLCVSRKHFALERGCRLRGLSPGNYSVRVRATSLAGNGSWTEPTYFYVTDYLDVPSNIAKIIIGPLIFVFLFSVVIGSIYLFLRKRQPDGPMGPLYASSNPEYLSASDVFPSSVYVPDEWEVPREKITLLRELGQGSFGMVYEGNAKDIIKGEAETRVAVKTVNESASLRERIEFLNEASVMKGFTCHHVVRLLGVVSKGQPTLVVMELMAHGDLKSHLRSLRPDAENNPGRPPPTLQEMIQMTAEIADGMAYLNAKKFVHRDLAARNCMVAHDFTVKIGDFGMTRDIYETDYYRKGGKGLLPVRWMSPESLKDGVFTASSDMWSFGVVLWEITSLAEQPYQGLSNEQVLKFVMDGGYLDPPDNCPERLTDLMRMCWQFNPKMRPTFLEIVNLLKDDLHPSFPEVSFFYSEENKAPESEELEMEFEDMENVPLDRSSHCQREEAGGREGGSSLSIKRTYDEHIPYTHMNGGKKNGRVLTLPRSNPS

125I-insulin: radiolabelled insulin used for transport quantification
impact of 3xTg-AD transgenes on 125I-insulin transport [1]: no significant impact

insulin
phosphorylation of INSRβ in microvessel-depleted parenchymal fraction ([2]; ISCP 120 s, insulin 350 nM, western blot): no trace was detected
time to INSRβ phosphorylation after intracarotid administration ([2]; insulin 0.4 mg/kg or 350 nM, ISCP): ≤ 120 s
